B1: AtGH3-9: GH3 protein, accession O82243 (protein, listed as Arabidopsis thaliana)
chain: MDVMKLDHDSVLKELERITSKAAEVQDNILRGILERNKDTEYLSKYMNGSKDVLEFKRAVPIIIYKDIYPYIQRIANGEDSSLITGHSITEILCSSGTSAGEPKLMPTIPEDLDRRTFLYNLIIPIVNKYITGLDKGKAMYLNFVKAETSTPCGLPIRAVLTSYYKSKHFQCRPYDPFNDLTSPIQTILCEDSNQSMYCQLLAGLIHRHKVMRLGAVFASAFLRAISYLEKKWSQLCEDIRTGSLNPMITDPGCQMAMSCLLMSPNPELASEIEEICGRSSWKGILCQLWPKAKFIEAVVTGSMAQYIPALEFFSQGKIPLVCPMYASSETYFGVNVEPLSKPSDVVFTLLPNMCYFEFIPLGKNGTLSFDLDDDEQVPCDKVVDLVNVKLGRYYELVVTTFAGLYRYRIGDVLQVAGFYNGAPQFRFICRRNVVLSIDLDKTNEEDLHRSITLAKKKLGSNAFLAEYTSYADTSSVPGHYVLFWEIQGHLEPKLMEECCVAVEEELDYIYRQCRTKERSIGALEIRVVKPGTFEKLMDLIISQGGSFNQYKTPRCVKSNSATFKLLNGHVMASFFSPRDPTWVP
B2: SmXP_002986992: GH3 protein, accession XP_002986992 (protein, listed as Selaginella moellendorffii)
chain: MEDFEAVCKNAVQAQEEALVQILQRNGSCHYLQRFGQPLCLKSFKTQLPIISYDNISPELQQIADHGTSHLLLGCDPILYFSFSSGTSSGKHKILPQTNCGYSLLARAYASSNAYRDEVFPLESTKPIGLHFVYSGEQYKAKSGLLLGAGSTNYYKSEAYNQEAETLATPYEALLAGSDWQQTTYCHLLCGLVQRHKIEFIHATFAYTLSEAFRLLESDWKILCEDISARRVSESKVTDEKLRVPVLKLMERELRGKDSSQVAREISEIFVTSKESRWSGLLPLLWPRAKYVHTVVTGAMEPYIPVLKKYAGDKLAIVGFDYSASEGYLGINMRPATPPEEVVFTLIPYTMFFEFIPVDPEEVPDHQQGETLGFKDLQVGKQYELVVTTFEGLYRYRIGDVVKVTGFHHESPIVAFSYRKNAVLSINAEKVDEQELQKVVMGSAGPLEIANFTSCADFATKERPHYVIYWELKNDGDNSRHEELRDSCNALDRGFNAAYLVGRVDKTLGALELVTVKQGTFEKLMEKAIESGASASQYKTPRCIKSPALLELLDQGAIGRYTSSEDISSLLAEDWKPSVIHGL
B3: AIGH3-9: GH3 protein, accession EFH58389 (protein, listed as Arabidopsis lyrata)
chain: MDVMKLDYNYKGGNALTELERITSKAAEVQDNILCGILERNKDTEYLSKYMKGSKDVVEFKRSVPIITYKDIYPYIQRIANGEDSSLITGHPITEILCSSGTSAGEPKLMPTISEDLDRRTFLYNLIIPIVNKYIPGLDKGKAMYLNFVKAETSTPCGLPIRAVLTSYYKSKHFQCRPYDPFNDLTSPIQTILCEDSNQSMYCQLLAGLIHRHKVMRLGAVFASAFLRAISYLEKKWSQLCEDIRTGRLNPMITDPGCQIAMSCLLTSPDPELASEIEEICSRSSWKGILCHLWPRAKFIEAVVTGSMAQYIPALEFFGQGKIPLVCPMYASSETYFGVNVEPLSKPSDVVFTLLPNMCYFEFIPLGKNGALSFDLDDDEQVPCDKVVDLVNVKLGRYYELVVTTFAGLYRYRIGDVLQVAGFYNEAPQFRFICRRNVVLSIDLDKTNEEDLHRSITLAKKKLGSNAFLAEYTSYADTSSVPGHYVLFWEIQGHLEPKLMEGCCVAVEEELDYIYRQCRTKERSIGALEIRVVKPGTFEKLMDLIISQGGSFNQYKTPRCVKSNSATFKLLNGHVTASFFSPRDPTWVA
B4: SmXP_002983845: GH3 protein, accession XP_002983845 (protein, listed as Selaginella moellendorffii)
chain: MENEQLLLEKLESSSWSPGEAQDKVLAEILEKNAATDYFNRHGLRAATKEVFRQRAPVIEYEDIKDEINRIADGEAATLLCANPIADMFTSSGTSGGAHKLFPKVEGHYAVSKYFFDLATALLNRDLPGLRTGKALYFLYVRSGRKTPGGLPAYPALTGYYNSLEFRNRPFDPSNDYTSPLEVILCTDSVQASYCHLLCGLIHARDVTKLGCFFASVFVRSIRCLEAWWQELSRDIRTGTLSERVVDPACREAVEKILRPDPELANVIDEACSSGSLKGIVRKLWPSAKAIDTVVTGAMEQYVGEVDYLTDGLPIASMIYASSESFFGVNLKPLCEPSQISYMFLPETSYYEFLPVARSEEKASREEPVELVDVEQGHEYELVITTNAGLYRYRMGDVLRVEGFHNKAPLFSFVCRTNVLLSIDSDKTDEKELQTAVMNAFAALRNGVTSKEGEAIRLTDYTSYADLSSNPPHYVIYWELSSELHLEPEKAGECCYKMEESLSVVYHRGRMERSIGALELRLVTPGTFNRIADDAASRGGSVSQFKLPRCIKKNATRMLEIVESGVYQQYFSPRAPKY
B5: PpGH3-1: GH3 protein, accession CAD42870 (protein, listed as Physcomitrella patens)
chain: MASEVAKPVENGIHPKLEQSFDAPAATKPSNSELLKLHRDGVPFVMPSKRGIDTTAPDFDPQDFLDLLAEDVMFIQHEKLREILEVQADVEYLRRVGLNGRTDVESFRKCVPIVSYGDLEADIMRVVNGEKTPIFTVDPIVTLNLSSGTTAGKPKFIPSTTRAYEYFMFLQTFVTSIYRREFPGYKDGTSFTLAFAGKQIDTPSGIKAGAQSTNHFRGPMFRNRVRNANREYCVPDEVILSDDTTQSMYCHLLCALAQAPEIVKVYGTFAASIVSAVRALQKHWSEIVEDIRTGTLNAKITEPEMRTAVQQMLHPNPDLASRIEEECSKDNWEGILPRLFPNAHFVSCVISGSMLQYAPALKHFSGHLPTISLAYAACECSFIGFNPSMKCAPEDITYMLWPETAYYEFIPLDEDSNPEQDGDVVRTVEACDLEVGRQYELVVTNVIGLYRYRLGDVLTMKRFHKTAPVFEFVRRKNVILSVHTDKTDEKELQSVVNLATEALAGTGMELSDYTSTADVSTLPGRYVIFWEMVDSSDLDYDVLQHCANTLDANFNSDYRRWRSGHQIGPLELRIVKEGTFNRVMDSAVARGASPSQYKPPRCVNNPHTRQILDDGLVASFHSTITPNPAPIALTGS

Legend:
[1] = LC-MS assay of GH3 conjugation of 2,4-D with Asp or Glu; type: biochemical; conditions: for kcat (hrs−1) 2,4-D-Asp: conjugation of 2,4-D with Asp by recombinant GH3 protein, 2,4-D-Asp product by LC-MS; for kcat (hrs−1) 2,4-D-Asp / kcat (hrs−1) 2,4-D-Glu: 5 mM 2,4-D substrate; for kcat (hrs−1) 2,4-D-Glu: conjugation of 2,4-D with Glu by recombinant GH3 protein, 2,4-D-Glu product by LC-MS; for 2,4-D conjugation activity with Asp or Glu: result in words
Method: (§1) To detect and monitor the formation of acyl conjugates with 2,4-D or dicamba, a sensitive LC-MS method was developed using the respective amino acid conjugate standards. […] The reaction was performed at 30° C., 105 rpm, for 3 hours in buffer containing 20 mM Tris-HCl (pH 8.0), 5 mM MgCl2, 5 mM auxin (IAA, 2,4-D or dicamba), 5 mM ATP, 5 mM Asp or Glu, 1 mM DTT and 44 to 164 μg/mL purified GH3 protein in 100 μL reaction. After 3 hours of reaction, 400 μL 100% MeOH was added to the reaction mixture for protein precipitation. The supernatant was diluted 20× in water and then analyzed by LC-MS (AB Sciex 4000 QTrap coupled with Shimadzu Nexera UHPLC) using a Phenomenex Luna 3 μm Phenyl-Hexyl (00B-4256-Y0) column. The concentration of the conjugates was calculated based on the standards. Kinetic parameters were estimated by fitting initial velocity values to the Michaelis-Menten equation.
(§2) The GH3 superfamily conjugase activity analysis of IAA, 2,4-D or dicamba with Asp or Glu was done using LC-MS to analyze the final conjugate products as described in Example 1. Protein sequences of GH3 homologs (Table 3) were obtained from public databases (NCBI, http://www.ncbi.nlm.nih.gov/) by Blast analysis of AtGH3.17 protein sequence (accession # Q9FZ87). Coding sequences were designed for optimal expression in E. coli based on the protein sequences and synthesized. Synthesized coding sequences along with N-term his-tag coding sequences were cloned into a pET24a-based E. coli expression vector. The E. coli expression vectors were transformed into OverExpress C41(DE3) cells (Lucigen) for protein expression. Recombinant E. coli strains were inoculated into 5 ml LB media supplemented with 40 mg/L kanamycin and cultured overnight at 37° C. The overnight culture (0.5 mL) was inoculated into 50 mL LB medium plus 40 mg/L kanamycin and grown at 30° C. until OD600 reached 0.6. The cultures were induced with 0.2 mM IPTG at 16° C., 230 rpm overnight. Cells were harvested by centrifugation at 7,000 rpm for 10 mins. The cell pellet from 50 mL of cell culture was frozen and thawed twice and then lysed in 800 μL lysis buffer A (150 mM NaCl, 50 mM Tris-HCl pH 8.0, 5 mM MgCl2, 10% glycerol) plus 20 mM imidazole, 1 mM DTT, 0.2 mg/ml lysozyme, 1/200 protease inhibitor cocktail (EMD set3, EDTA free) and 1/2000 endonuclease. Lysate was then centrifuged at 13,000 rpm for 30 min at 4° C. Supernatant was loaded onto 200 μL Ni-NTA columns pre-equilibrated with buffer A with 20 mM imidazole at 4° C. Each column was then washed with (1) 2×800 μL of buffer A with 10 mM imidazole, (2) 2×800 μL of buffer A with 20 mM imidazole and (3) 2×200 μL of buffer A with 50 mM imidazole. Protein was eluted with 200 μL of buffer A with 250 mM imidazole. The concentration was measured by Bradford assay. Purified protein was used in conjugation reaction assays as described in example 1.

[2] = LC-MS assay of GH3 conjugation of IAA with Asp or Glu; type: biochemical; conditions: for kcat (hrs−1) IAA-Asp: conjugation of IAA with Asp by recombinant GH3 protein, IAA-Asp product by LC-MS; for kcat (hrs−1) IAA-Glu: conjugation of IAA with Glu by recombinant GH3 protein, IAA-Glu product by LC-MS; for IAA conjugation activity with Asp or Glu: result in words
Method: as §1, §2

Molecule | kcat (hrs−1) 2,4-D-Asp [1] | kcat (hrs−1) 2,4-D-Glu [1] | 2,4-D conjugation activity with Asp or Glu [1] | kcat (hrs−1) IAA-Asp [2] | kcat (hrs−1) IAA-Glu [2] | IAA conjugation activity with Asp or Glu [2]
B1 | 0.000 h⁻¹ | 0.005 h⁻¹ | 2,4-D conjugases | 0.000 h⁻¹ | 0.000 h⁻¹ | IAA-inactive
B2 | 0.000 h⁻¹ | 0.006 h⁻¹ | 2,4-D conjugases | 0.000 h⁻¹ | 0.000 h⁻¹ | IAA-inactive
B3 | 0.000 h⁻¹ | 0.015 h⁻¹ | 2,4-D conjugases | 0.000 h⁻¹ | 0.000 h⁻¹ | IAA-inactive
B4 | 0.090 h⁻¹ | 0.052 h⁻¹ | 2,4-D conjugases | 0.000 h⁻¹ | 0.000 h⁻¹ | IAA-inactive
B5 | 0.078 h⁻¹ | 0.122 h⁻¹ | 2,4-D conjugases | 0.000 h⁻¹ | 0.000 h⁻¹ | IAA-inactive
